Assay results as given in patent publication CN110420334A, “一种药物缀合物和提高药物分子半衰期的方法” (Jiangnan University, priority 2019, dated 2019).
Read-outs that look alike come from different tables or passages of the source. Non-standard residues stand in square brackets, D forms with d. No end group written: not given here. pGlu = O=C1CC[C@@H](C(=O)O)N1

Legend:
[1] = mouse, in vivo
LHRH受体 = molecular target: T1, LHRH受体 (Homo sapiens, UniProt P30968); experiment: Competitive flow cytometry against fluorescent anti-LHRH receptor antibody (Example 4); format: binding; details: MCF7 (LHRH high), 250nM, on ice 1h
T1 construct: MCF7(LHRH高表达)，UCI107(LHRH不表达); endogenous in cells; host or cells: MCF7 (positive), UCI107 (negative)
T1 sequence (P30968 1-328): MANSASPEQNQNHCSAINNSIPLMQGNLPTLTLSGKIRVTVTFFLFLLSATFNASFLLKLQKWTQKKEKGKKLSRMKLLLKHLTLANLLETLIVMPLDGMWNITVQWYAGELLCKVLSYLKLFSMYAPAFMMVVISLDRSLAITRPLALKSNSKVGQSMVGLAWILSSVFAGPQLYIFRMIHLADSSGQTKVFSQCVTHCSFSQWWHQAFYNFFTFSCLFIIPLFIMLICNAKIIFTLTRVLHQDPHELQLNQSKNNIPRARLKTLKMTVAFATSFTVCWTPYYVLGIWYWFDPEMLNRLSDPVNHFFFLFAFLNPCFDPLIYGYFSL

CD13 = molecular target: T2, CD13 (Homo sapiens, UniProt P15144); experiment: Competitive flow cytometry against fluorescent anti-CD13 antibody (Example 5); format: binding; details: HUVEC (CD13 high), 250nM, on ice 1h
T2 construct: HUVEC(CD13高表达)，MCF7(CD13不表达); endogenous in cells; host or cells: HUVEC (positive), MCF7 (negative)
T2 sequence (P15144 whole entry): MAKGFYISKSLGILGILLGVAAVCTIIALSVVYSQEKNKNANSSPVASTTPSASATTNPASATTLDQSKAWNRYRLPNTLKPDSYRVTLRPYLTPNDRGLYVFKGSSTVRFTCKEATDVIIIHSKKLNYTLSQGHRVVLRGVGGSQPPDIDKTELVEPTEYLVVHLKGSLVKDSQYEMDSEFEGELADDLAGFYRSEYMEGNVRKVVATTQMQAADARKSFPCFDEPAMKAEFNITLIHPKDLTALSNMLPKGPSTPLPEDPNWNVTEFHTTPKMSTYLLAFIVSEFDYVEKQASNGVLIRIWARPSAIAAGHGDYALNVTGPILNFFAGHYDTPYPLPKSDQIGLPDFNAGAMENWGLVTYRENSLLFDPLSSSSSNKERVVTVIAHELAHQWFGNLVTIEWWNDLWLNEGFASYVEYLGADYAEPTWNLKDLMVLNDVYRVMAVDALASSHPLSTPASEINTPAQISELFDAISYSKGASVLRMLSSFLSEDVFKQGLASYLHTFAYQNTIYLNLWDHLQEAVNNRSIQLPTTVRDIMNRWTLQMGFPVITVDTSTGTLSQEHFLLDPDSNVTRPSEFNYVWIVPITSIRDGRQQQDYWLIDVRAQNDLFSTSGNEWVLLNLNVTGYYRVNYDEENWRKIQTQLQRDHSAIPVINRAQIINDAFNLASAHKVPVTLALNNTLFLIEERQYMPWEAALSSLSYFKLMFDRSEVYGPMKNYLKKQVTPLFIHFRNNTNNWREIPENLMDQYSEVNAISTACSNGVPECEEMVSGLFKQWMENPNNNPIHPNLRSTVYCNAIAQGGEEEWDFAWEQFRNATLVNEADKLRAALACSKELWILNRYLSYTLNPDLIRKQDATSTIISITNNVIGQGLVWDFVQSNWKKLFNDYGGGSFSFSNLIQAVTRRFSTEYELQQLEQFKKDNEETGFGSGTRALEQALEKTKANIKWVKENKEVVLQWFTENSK

competitive inhibition of anti-LHRH receptor antibody binding to LHRH receptor (LHRH受体) | competitive inhibition of anti-CD13 antibody binding to HUVEC (CD13) | Substance | serum half-life [1] [min] | serum half-life ([1]; iv) [min]
竞争性抑制 | – | Glp-His-Trp-Ser-Tyr-D-Lys-Leu-Arg-Pro-Gly-NH2 (chain 1 [pGlu]HWSY; chain 2 [dK]LRPG-NH2; numbers in words are those of the source; also: chains 1 and 2 are one continuous chain (Tyr-D-Lys peptide bond)) [LHRH, LHRH肽, 促黄体酮激素释放激素] | 2.2 | 2.6
– | 竞争性抑制 | NGR-DNP: cyclic NGR peptide (chain GGGCNGRC) coupled with DNP by amide condensation (not fully specified (bridges); cysteine pairing not given here; also: DNP conjugated by amide condensation, position not given here) | – | –
